Experimental data reported in patent US11813311B2, “Treatment and prevention of metabolic diseases” (Singapore Health Services PTE LTD., priority 2019, dated 2023).

Legend:
[1] = test system: rheumatoid synovial cells; conditions: cited from earlier work
[2] = test system: IL-11 mediated signalling; conditions: cited from earlier work
[3] = test system: primary human hepatocytes; test: Stimulation of primary human hepatocytes with IL11, hyperIL11, hyperIL6; format: cell-based
Experimental: Human hepatocytes (5200, ScienCell) were grown and maintained in hepatocyte media (5201, ScienCell) supplemented with 2% fetal bovine serum (FBS) and 1% Penicillin-streptomycin.
Primary human hepatocytes (5200, ScienCell) were maintained in hepatocyte medium ([…], ScienCell) supplemented with 2% fetal bovine serum, 1% Penicillin-streptomycin at 37° C. and 5% CO2. Hepatocytes (P2-P3) were serum-starved overnight unless otherwise specified in the methods prior to 24 hours stimulation with different doses of various recombinant proteins as described.
For surface IL11RA, IL6R, and gp130 analysis, primary human hepatocytes and THP-1 cells were stained with IL11RA, IL6R, or gp130 antibody and the corresponding Alexa Fluor 488 secondary antibody. Cell death analysis was performed by staining primary human hepatocytes with Dead Cell Apoptosis Kit with Annexin V FITC and PI (V13242, Thermo Fisher). PI+ve cells were then quantified with the flow cytometer (Fortessa, BD Biosciences) and analyzed with FlowJo version X software (TreeStar).
Alanine Aminotransferase (ALT) activity in the cell culture supernatant and mouse serum was measured using ALT Activity Assay Kit (ab105134, Abcam). Liver Glutathione (GSH) levels were measured using Glutathione Colorimetric Detection Kit (EIAGSHC, Thermo Fisher). Total hydroxyproline content in mouse livers was measured using Quickzyme Total Collagen assay kit (QZBtotco15, Quickzyme Biosciences). The levels of serum and liver triglycerides were measured using Triglyceride Assay Kit (ab65336, Abcam). Mouse serum levels of Aspartate Aminotransferase (AST) and cholesterol were measured using AST Assay Kit (ab105135, Abcam) and Cholesterol Assay Kit (ab65390; Abcam), respectively. All colorimetric assays were performed according to the manufacturer's protocol.
(§1) Western blots were carried out on total protein extracts from hepatocytes and liver tissues. Hepatocyte and liver tissue lysates were homogenized in RIPA Lysis and Extraction Buffer (89901, Thermo Scientific) containing protease and phosphatase inhibitors (Roche). Protein lysates were separated by SDS-PAGE and transferred to PVDF membranes. Protein bands were visualized using the ECL detection system (Pierce) with the appropriate secondary antibodies: anti-rabbit HRP or anti-mouse HRP.

[4] = test system: primary human hepatocytes; test: Palmitate loading (lipotoxicity) of primary human hepatocytes; format: cell-based
Experimental: Palmitate:BSA conjugated solution in the ratio of 6:1 was prepared as described earlier (Alsabeeh et al., 2018). Palmitate (0.5 mM) conjugated in fatty acids free BSA was used to treated cells as described in figure legends; 0.5% BSA solution was used as control. […]
Primary human hepatocytes were seeded on 8-well chamber slides (1×10^4 cells/well). For this experiment, cells were not serum-starved prior to palmitate treatment. 24 hours following palmitate stimulation, cells were washed, incubated with 25 μM of DCFDA solution (ab113851, Abcam) for 45 minutes at 37° C. in the dark, and rinsed with dilution buffer according to the manufacturer's protocol. Live cells with positive DCF staining were imaged with filter set appropriate for fluorescein (FITC) using a fluorescence microscope (Leica). […]
as §1

WDF-fed mice = test: Hepatocyte-specific sgp130 expression in WDF-fed mice; format: in vivo, mouse
Experimental: (§2) Three weeks prior to starting either the WDF and HFMCD diet, mice were injected with an AAV8 virus encoding either albumin promoter-driven sgp130 (AAV8-Alb-sgp130), which contains the whole extracellular domain of mouse gp130 protein (amino acid 1 to 617), or albumin promoter alone (AAV8-Alb-Null) (FIGS. 35A, 41A, and 42A). AAV8-Alb-sgp130 administration induced high levels of sgp130 in the liver, which was also detectable in the peripheral circulation, suitable for both local and systemic inhibition of putative IL6 or IL11 trans-signaling (FIGS. 35B, 41B, 42B-42C).
6-8 weeks old C57BL/6N, Il11ra1−/− mice, and Il11ra1loxP/loxP and their respective control were fed western diet (D12079B, Research Diets) supplemented with 15% weight/volume fructose in drinking water (WDF) for 16 weeks. Control mice received NC and tap water.
(§3) 6-8-week old male C57BL/6N mice (InVivos) were injected with 4×10^11 gc AAV8-Alb-sgp130 virus to induce hepatocyte specific expression of soluble gp130; control mice were injected with 4×10^11 gc AAV8-Alb-Null virus. 3 weeks following virus administration, mice were fed with HFMCD, WDF, or NC for durations that are described.

HFMCD-fed mice = test: Hepatocyte-specific sgp130 expression in HFMCD-fed mice; format: in vivo, mouse
Experimental: as §2
6-8 weeks old C57BL/6N, Il11ra1−/− mice, and Il11ra1loxP/loxP and their respective control were fed with methionine- and choline-deficient diet supplemented with 60 kcal % fat (HFMCD, A06071301B16, Research Diets) for 4 weeks. Control mice received normal chow (NC, Specialty Feeds).
as §3

COc1ccc2c(c1)c(CC(=O)O)c(C)n2C(=O)c1ccc(Cl)cc1 [indomethacin, reference compound]
expression of IL-11 [1]: reduction in the expression of IL-11

B1: W147A: IL-11 antagonist mutein, amino acid 147 mutated from tryptophan to alanine (protein, UniProt P20809 22-199, looked up, variant W147A)
Interleukin-11: PGPPPGPPRVSPDPRAELDSTVLLTRSLLADTRQLAAQLRDKFPADGDHNLDSLPTLAMSAGALGALQLPGVLTRLRADLLSYLRHVQWLRRAGGSSLKTLEPELGTLQARLDRLLRRLQLLMSRLALPQPPPDPPAPPLAPPSSAAGGIRAAHAILGGLHLTLDWAVRGLLLLKTRL
antagonism of IL-11 mediated signalling [2]: efficient blockade of IL-11 signalling

B2: sgp130: Soluble gp130, inhibitor of trans-signaling; human sgp130 Fc in vitro, mouse sgp130 expressed from AAV8-Alb-sgp130 in vivo (protein)
chain: ELLDPCGYISPESPVVQLHSNFTAVCVLKEKCMDYFHVNANYIVWKTNHFTIPKEQYTIINRTASSVTFTDIASLNIQLTCNILTFGQLEQNVYGITIISGLPPEKPKNLSCIVNEGKKMRCEWDGGRETHLETNFTLKSEWATHKFADCKAKRDTPTSCTVDYSTVYFVNIEVWVEAENALGKVTSDHINFDPVYKVKPNPPHNLSVINSEELSSILKLTWTNPSIKSVIILKYNIQYRTKDASTWSQIPPEDTASTRSSFTVQDLKPFTEYVFRIRCMKEDGKGYWSDWSEEASGITYEDRPSKAPSFWYKIDPSHTQGYRTVQLVWKTLPPFEANGKILDYEVTLTRWKSHLQNYTVNATKLTVNLTNDRYLATLTVRNLVGKSDAAVLTIPACDFQATHPVMDLKAFPKDNMLWVEWTTPRESVKKYILEWCVLSDKAPCITDWQQEDGTVHRTYLRGNLAESKCYLITVTPVYADGPGSPESIKAYLKQAPPSKGPTVRTKKVGKNEAVLEWDQLPVDVQNGFIRNYTIFYRTIIGNETAVNVDSSHTEYTLSSLTSDTLYMVRMAAYTDEGGKDGPEFTFTTPKFAQGEIE
modifications: left off: a dimerising Fc or GST
notes: human sgp130 Fc in vitro, mouse sgp130 expressed from AAV8-Alb-sgp130 in vivo
IL11-induced hepatocyte death and signaling ([3]; IL11 20 ng/ml, sgp130 or sIL11RA 1 μg/ml): unaffected | ALT release from IL11-stimulated hepatocytes ([3]; increasing doses of sgp130 or sIL11RA): no effect | activation of signaling downstream of hyperIL6 (p-STAT3) ([3]; sgp130 added): blocked | activation of signaling downstream of hyperIL11 (p-ERK/p-JNK) ([3]; sgp130 added): blocked | hepatotoxic effects of hyperIL11 ([3]; sgp130 added): inhibited | IL11 dose-dependent hepatocyte cell death on addition of decoy ([3]; sgp130 or sIL11RA 1 μg/ml): unaffected | palmitate-induced signaling events ([4]; Western blot): no effect | secretion of cytokines (IL11, IL6, CCL2, CCL5) ([4]; X209 2 μg/ml or sgp130 1 μg/ml): no effect | ALT, AST, collagen, fasting blood glucose, serum triglycerides, serum cholesterol, GSH (WDF-fed mice; 16 weeks of WDF): none of these parameters were affected | expression of pro-inflammatory and fibrosis genes (WDF-fed mice; 16 weeks of WDF): unaffected | obesity, liver mass and steatosis phenotypes (WDF-fed mice; 16 weeks of WDF): unaffected | diet-induced signaling events (WDF-fed mice; WDF): no effect | diet-induced signaling events (HFMCD-fed mice; HFMCD): no effect | HFMCD-induced liver fibrosis (HFMCD-fed mice; HFMCD 4 weeks): unchanged | expression of inflammation and fibrosis genes (HFMCD-fed mice; HFMCD 4 weeks): unaffected | hepatocyte damage markers (ALT and AST) and GSH (HFMCD-fed mice; HFMCD 4 weeks): irrespective of sgp130 expression | steatosis (HFMCD-fed mice; HFMCD 4 weeks): unaltered

B3: interferon-gamma: interferon-gamma (IFNγ) (protein, UniProt P01579 24-161, looked up)
Interferon gamma: QDPYVKEAENLKKYFNAGHSDVADNGTLFLGILKNWKEESDRKIMQSQIVSFYFKLFKNFKDDQSIQKSVETIKEDMNVKFFNSNKKKRDDFEKLTNYSVTDLNVQRKAIHELIQVMAELSPAAKTGKRKRSQMLFRG
expression of IL-11 [1]: reduction in the expression of IL-11

B4: sIL-11R: soluble murine IL-11 receptor alpha chain (Curtis et al.) (protein, UniProt Q64385 24-372, looked up)
extracellular domain: SPCPQAWGPPGVQYGQPGRPVMLCCPGVSAGTPVSWFRDGDSRLLQGPDSGLGHRLVLAQVDSPDEGTYVCQTLDGVSGGMVTLKLGFPPARPEVSCQAVDYENFSCTWSPGQVSGLPTRYLTSYRKKTLPGAESQRESPSTGPWPCPQDPLEASRCVVHGAEFWSEYRINVTEVNPLGASTCLLDVRLQSILRPDPPQGLRVESVPGYPRRLHASWTYPASWRRQPHFLLKFRLQYRPAQHPAWSTVEPIGLEEVITDAVAGLPHAVRVSARDFLDAGTWSAWSPEAWGTPSTGPLQDEIPDWSQGHGQQLEAVVAQEDSPAPARPSLQPDPRPLDHRDPLEQVAVLA
modifications: extracellular domain
antagonism of IL-11 mediated signalling [2]: capable of antagonizing the activity of IL-11
